This is an account of results in US20220031857A1.

The target of experiment [1] is recombinant mouse TfR1 (transferrin receptor 1) (mouse) (UniProt Q62351). Briefly: Octet, mouse TfR1 on anti-His biosensors, analyte 10 nM, PBS pH 7.2. (In BLI a coated tip is dipped into the sample, and binding shifts an interference pattern.)
Experiment [2] has the same target. Briefly: Octet, mouse TfR1 immobilised on biosensors; row buffer (no first antibody), column 8D3.
For experiment [3] the target is unchanged. Briefly: Octet, mouse TfR1 on anti-His biosensors, analyte 10 nM, PBS pH 6.0.

Sequence of recombinant mouse TfR1 (transferrin receptor 1) (mouse) (Q62351 89-763 limits assumed): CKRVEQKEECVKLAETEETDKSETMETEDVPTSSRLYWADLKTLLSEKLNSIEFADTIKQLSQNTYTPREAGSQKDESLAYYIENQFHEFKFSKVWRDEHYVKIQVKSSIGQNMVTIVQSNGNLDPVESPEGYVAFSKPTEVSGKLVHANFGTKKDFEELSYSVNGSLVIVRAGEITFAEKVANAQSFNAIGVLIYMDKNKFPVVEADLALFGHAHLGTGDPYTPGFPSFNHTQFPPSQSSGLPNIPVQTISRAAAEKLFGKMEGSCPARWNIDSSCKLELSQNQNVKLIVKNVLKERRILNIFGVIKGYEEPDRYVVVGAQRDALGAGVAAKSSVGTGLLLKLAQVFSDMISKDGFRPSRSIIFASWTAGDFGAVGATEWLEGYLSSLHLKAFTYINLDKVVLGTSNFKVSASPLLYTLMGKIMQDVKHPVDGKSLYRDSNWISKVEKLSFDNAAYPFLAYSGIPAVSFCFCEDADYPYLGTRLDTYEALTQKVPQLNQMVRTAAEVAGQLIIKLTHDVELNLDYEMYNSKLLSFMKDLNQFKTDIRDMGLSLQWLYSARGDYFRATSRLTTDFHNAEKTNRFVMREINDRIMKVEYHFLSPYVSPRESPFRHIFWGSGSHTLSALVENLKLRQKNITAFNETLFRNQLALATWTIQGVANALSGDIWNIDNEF

B1: 8D3 monoclonal antibody to mouse TfR (antibody, from another filing, V domains shown)
VH: EVQLVESGGGLVQPGNSLTLSCVASGFTFSNYGMHWIRQAPKKGLEWIAMIYYDSSKMNYADTVKGRFTISRDNSKNTLYLEMNSLRSEDTAMYYCAVPTSHYVVDVWGQGVSVTVSS
VL: DIQMTQSPASLSASLEEIVTITCQASQDIGNWLAWYQQKPGKSPQLLIYGATSLADGVPSRFSGSRSGTQFSLKISRVQVEDIGIYYCLQAYNTPWTFGGGTKLELK
One may read the Kd as the free concentration of one partner at which half of the binding sites on the other are occupied at equilibrium, for simple one-to-one binding. The koff is the rate constant with which the complex falls apart. By kon is commonly meant a measure of how fast the partners come together. Turning to B1, in experiment [1], the Kd came out at 0.221 nM, the koff came to 0.000131 s⁻¹ and the kon was determined as 591000 M⁻¹ s⁻¹. The Octet signal as second antibody after buffer in experiment [2] was determined as 0.33. Also, in experiment [3], the Kd was 0.247 nM, the off-rate (koff) amounted to 0.000126 s⁻¹ and the kon came to 511000 M⁻¹ s⁻¹.
